Measurements from patent publication US20230174641A1 (H LUNDBECK A S, published 2023).
Ends that are not written are not given here.

T1: human ACTH 1-13 (human, ends and bridges not checked)
T1 construct: also called human alpha-MSH (ACTH 1-13); alpha-MSH
T1 peptide: SYSMEHFRWGKPV

T2: human ACTH 1-39 (human)
T2 construct: unlabelled synthetic peptide (Bachem or American Peptide) as used in SPR and cell assays; also called huACTH 1-39; huACTH(1-39)
T2 peptide: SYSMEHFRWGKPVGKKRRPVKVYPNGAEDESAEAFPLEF

T3: human ACTH 18-39 (human)
T3 construct: also called CLIP; CLIP (ACTH 18-39)
T3 peptide: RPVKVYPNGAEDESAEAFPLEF

T4: N-term biotinylated human ACTH 1-39 (human, N-terminal biotin)
T4 construct: also called huACTH 1-39
T4 peptide: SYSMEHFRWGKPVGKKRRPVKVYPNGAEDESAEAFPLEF

T5: ACTH 1-24 (human)
T5 peptide: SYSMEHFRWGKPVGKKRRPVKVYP


Tests used:
human ACTH 1-13 [1] = target: T1, human ACTH 1-13; assay: SPR ProteOn, antibody immobilised; SPR, antibody on the chip, alpha-MSH alone (Table 6)
Protocol: (§1) Antibody was immobilized to the surface of general amine coupling (GLC or GLM) Chips (Bio-Rad). […] At the chosen concentrations of antigen (ranging from 454 ng/ml to 5.6 ng/ml) association times of 200 seconds and dissociation times of 30-200 minutes were used with the ProteOnTM Manager Software (v3.1.0.6, Bio-Rad) to group and fit data using a 1:1 Langmuir binding model. Surfaces were regenerated between analyte queries using 10 mM glycine at pH 2.0. Data repeated across a single density was averaged and a single KD and standard propagation of error calculated for each antibody.

human ACTH 1-39 [2] = target: T2, human ACTH 1-39; assay: SPR ProteOn, antibody immobilised
Protocol: as §1

human ACTH 18-39 = target: T3, human ACTH 18-39; assay: SPR ProteOn, antibody immobilised
Protocol: as §1

[3] = target: T4, N-term biotinylated human ACTH 1-39; assay: ELISA, biotin-ACTH 1-39 on neutravidin plate
Protocol: All incubations were done at room temperature. […] The plates were then blocked using a blocking solution (PBS, 0.5% fish skin gelatin, 0.05% Tween-20) for approximately one hour. The blocking solution was then removed and the plates were then incubated with a dilution series of the antibody being tested for approximately one hour. At the end of this incubation, the plate was washed three times with wash buffer and further incubated with a secondary antibody containing solution (Peroxidase conjugated AffmiPure™ F(ab′)₂ fragment goat anti-human IgG, Fc fragment specific (Jackson Immunoresearch) for approximately 45 minutes and washed three times. Next a substrate solution (TMB peroxidase substrate, BioFx®, SurModics, Eden Prairie, Minn.) was added and incubated for 3 to 5 minutes in the dark. The reaction was stopped by addition of 0.5 M HCl and the plate was read at 450 nm in a plate-reader.

human ACTH 1-39 [4] = target: T2, human ACTH 1-39; assay: cell-based or functional assay
[5] = target: T4, N-term biotinylated human ACTH 1-39; assay: competition HTRF, biotinylated human ACTH 1-39 in the presence of ACTH 1-13 and ACTH 18-39 at 1X (55 nM each, [p-2038])
Protocol: (§2) Twenty microliters of Eu3+cryptate labeled anti-hu Fc donor and 20 μl of d2-labeled streptavidin acceptor were added to each well and incubated for 1 hour at room temperature. Fluorescence was measured at […] with a delay of 300 μsec.

human ACTH 1-39 [6] = target: T2, human ACTH 1-39; assay: cell-based or functional assay
[7] = target: T4, N-term biotinylated human ACTH 1-39; assay: competition HTRF, biotinylated human ACTH 1-39 in the presence of ACTH 1-13 and ACTH 18-39 at 10X (550 nM each, [p-2038])
Protocol: as §2

human ACTH 1-39 [8] = target: T2, human ACTH 1-39; assay: cell-based or functional assay
human ACTH 1-39 [9] = target: T2, human ACTH 1-39; assay: cell-based or functional assay
ACTH 1-24 = target: T5, ACTH 1-24; assay: cell-based or functional assay
human ACTH 1-13 [10] = target: T1, human ACTH 1-13; assay: SPR ProteOn, antibody immobilised
Protocol: as §1

Binder | Kd (human ACTH 1-13 [1]) | koff (human ACTH 1-13 [1]) | kon (human ACTH 1-13 [1]) | Kd (human ACTH 1-39 [2]) | koff (human ACTH 1-39 [2]) | kon (human ACTH 1-39 [2]) | koff (human ACTH 18-39) | EC50 [3] | MC2R IC50 (human ACTH 1-39 [4]) | EC50 (read off the curve) [5] | Y1 Cells IC50 (human ACTH 1-39 [6]) | EC50 (read off the curve) [7] | MC1R IC50 (human ACTH 1-39 [8]) | MC3R IC50 (human ACTH 1-39 [9]) | MC4R IC50 (human ACTH 1-39 [9]) | MC5R IC50 (human ACTH 1-39 [9]) | IC50 (nM), cAMP in MC2R cells (ACTH 1-24) | Kd (human ACTH 18-39) | kon (human ACTH 18-39) | koff (human ACTH 1-13 [10])
Ab5 (antibody, human IgG1, kappa, N297A, V domains shown, rabbit/human chimeric antibody, made in HEK-293) VH: QSVEESGGRLVTPGTPLTLTCTVSGFSLSSYAMSWVRQAPGEGLEWIGIISDSGSTYYASWAKGRFTISKTSTTVDLKITSPTTEDTATYFCAREPEYGYDDYGDWVSDLWGQGTLVTVSS VL: DIVMTQTPASVSEPVGGTVTIKCQASQSISSYLSWYQQKPGQPPKLLIYRASTLASGVPSRFKGSGSGTQFTLTISDLECADAATYYCQSYYYSSSITYRNAFGGGTEVVVKR | 55 nM | 0.014 s⁻¹ | 260000 M⁻¹ s⁻¹ | 0.064 nM | 6.4e-05 s⁻¹ | 1e+06 M⁻¹ s⁻¹ | > 0.1 s⁻¹ | 1.5 nM | 0.11 nM | ~2 nM | 3.49 nM | ~3 nM | 1.96 nM | 58.1 nM | 43.4 nM | 1000 nM |  |  |  | 
Ab6 (antibody, human IgG1, kappa, N297A, V domains shown, rabbit/human chimeric antibody, made in HEK-293) VH: QSVEESGGRLVTPGTPLTLTCTVSGFSLTDYAMSWVRQAPGEGLEWIGIISDSGSTYYASWAKGRFTFSKTSTTVDLRITSPTTEDTATYFCAREPEYGYDEYGDWVSDLWGPGTLVTVSS VL: DIVMTQTPASVEAAVGGAVTIKCQATQSIGNNLAWYQQKPGQPPKLLIYRASTLASGVPSRFKGSGSGTEFTLTISDLECADAATYYCQSYYYSSSITYHNAFGGGTEVVVKR | 16 nM | 0.0052 s⁻¹ | 330000 M⁻¹ s⁻¹ | 0.019 nM | 1.9e-05 s⁻¹ | 1e+06 M⁻¹ s⁻¹ | > 0.1 s⁻¹ | 2 nM | 0.03 nM |  | 1.44 nM |  | 1.04 nM | 62.8 nM | 55.2 nM | 1000 nM | 0.1 nM |  |  | 
Ab2 (antibody, human IgG1, kappa, N297A, V domains shown, rabbit/human chimeric antibody, made in HEK-293) VH: QSVEESGGRLVTPGTPLTLTCTVSGFSLSKYDMIWVRQAPGKGLESIGIIYDDGDTYYASWAKGRFTISQTSTTVDLKIISPTTEDTATYFCVKGVSNIWGQGTLVTVSS VL: DVVMTQTPASVEAAVGGTVTIKCQASQSISNYLAWYQQKTGQPPKLLIYSASTLASGVPSRFKGSGSGTEFTLTISDLECADAATYYCQSYEGSSSSSYGVGFGGGTEVVVKR |  |  |  |  |  |  | 0.026 s⁻¹ | 0.42 nM | 0.25 nM |  |  |  | 3.62 nM | 79 nM | 54.5 nM | 1100 nM | 1.3 nM | 31 nM | 840000 M⁻¹ s⁻¹ | > 0.1 s⁻¹
Ab3 (antibody, human IgG1, kappa, N297A, V domains shown, rabbit/human chimeric antibody, made in HEK-293) VH: QSLEESGGRLVTPGTPLTLTCTVSGSSLSNFDMIWVRQAPGKGLESIGIIYDFGSTYYASWAKGRFTISRTSSTTVDLKIISPTIEDTATYFCVKGVSNIWGQGTLVTVSS VL: DVVMTQTPASVEAAVGGTVTIKCQASEDISSNLAWYQQKLGQPPKLLIYSASTLASGVPSRFKGSGSGTEFTLAISDLECADAATYYCQSYDGSSSSSYGIGFGGGTEVVVKR |  |  |  |  |  |  | 0.0085 s⁻¹ | 0.24 nM | 0.29 nM |  | 7.72 nM |  | 4.12 nM | 58.7 nM | 54.2 nM | 1100 nM | 0.8 nM | 25 nM | 340000 M⁻¹ s⁻¹ | > 0.1 s⁻¹
